Measurements reported in patent publication US20220332811A1 (NOVAROCK BIOTHERAPEUTICS, published 2022).
Changes are numbered by the printed parent chain.

B1: Hu-2 18006B (antibody, V domains shown)
VH: QVQLVQSGAEVKKPGASVKVSCKASGYTFTTYGISWVRQAPGQGLEWMGWISAYNGNTKYAQKLQGRVTMTTDTSTSTAYMELRSLRSDDTAVYYCAREWRAFYYYGLDVWGQGTTVTVSS
VL: DIVMTQTPLSSPVTLGQPASISCRSSQSLEHSDGNTYLSWLQQRPNQPPRLLIYKVSNRFSGVPDRFSGSGAGTDFTLKISRVEAEDVGVYYCTQATQFPLTFGGGTKVEIK
notes: Purified from hybridoma (Trianni mice); also called H-2 1800B (mIgG1)
B2: Hu-6 18006B* (recombinant mIgG2a) (antibody, V domains shown)
VH: QVQLVQSGAEVKKPGASVKVSCKTSGYTFTYYGISWVRQAPGQGLEWMGLISAYNGNTNYGQKVQGRVTMTTDTSTSTAYMELRSLRSDDTAVYYCVTENINWRDAFDIWGQGTMVTVSS
VL: EIVLTQSPDFQSVTPKEKVTITCRASQTIGSSLHWYQQKPDQSPKLLIKYASQSISGVPSRFSGSGSGTDFTLTINSLEAEDAAAYYCHQSSSLPYTFGQGTKLEIK
B3: Hu-4 18006B** (recombinant, hIgG4) (antibody, V domains shown)
VH: QVHLVQSGAEVKKPGASVKVSCKASGYTFSSYGINWVRQAPGQGLEWMGWISAYSGNTDYSQHLQGRVTMTTDTSTNTAYMELRSLRSDDTAVYYCARASANWYDYFDPWGQGTLVTVSS
VL: B2 VL with S31G, K49T, I55F, N76H, A85T, S93I
B4: Hu-4 18006B* (recombinant, mIgG2a) (antibody, V domains shown)
VH: B3 VH
VL: B2 VL with S31G, K49T, I55F, N76H, A85T, S93I
B5: Hu-5 18006B (antibody, IgG2b, V domains shown)
VH: QLQLQESGPGLVKPSETLSLTCTVSGGSISSSSFYWGWIRQPPGKGLEWIGSIYYSGSTYYNPSLKSRVTISVDTSKNQFSLKLSSVTAADTAVYFCARHGVRGVIPHFDYWGQGTLVTVSS
VL: QTVLTQEPSFSVSPGGTVTLTCGLNSGSVSTIYYPSWYQQTPGQAPRALIYSTNTRSSGVPDRFSGSILGNKAALTITGAQADDESDYYCVLFLGSGLVFGGGTKLTVL
notes: Purified from hybridoma
B6: Hu-6 18006B (purified from hybridoma) (antibody, V domains shown)
VH: B2 VH
VL: B2 VL
B7: Hu-4 18006B (purified from hybridoma) (antibody, IgG2c, V domains shown)
VH: B3 VH
VL: B2 VL with S31G, K49T, I55F, N76H, A85T, S93I

The binders below were run against T1, human IL-12 protein (human, UniProt P29459 23-219; P29460 23-328) (assay: SPR (BIAcore); antibody captured on anti-Fc chip, antigen injected).
T1 construct: Recombinant protein; also called hIL12; hIL-12
T1 sequence (looked up) 1: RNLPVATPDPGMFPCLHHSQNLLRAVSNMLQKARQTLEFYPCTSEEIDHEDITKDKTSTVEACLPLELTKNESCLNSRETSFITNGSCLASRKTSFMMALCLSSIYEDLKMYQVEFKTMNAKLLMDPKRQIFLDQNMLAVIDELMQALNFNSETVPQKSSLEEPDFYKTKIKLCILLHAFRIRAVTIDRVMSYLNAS
T1 sequence (looked up) 2: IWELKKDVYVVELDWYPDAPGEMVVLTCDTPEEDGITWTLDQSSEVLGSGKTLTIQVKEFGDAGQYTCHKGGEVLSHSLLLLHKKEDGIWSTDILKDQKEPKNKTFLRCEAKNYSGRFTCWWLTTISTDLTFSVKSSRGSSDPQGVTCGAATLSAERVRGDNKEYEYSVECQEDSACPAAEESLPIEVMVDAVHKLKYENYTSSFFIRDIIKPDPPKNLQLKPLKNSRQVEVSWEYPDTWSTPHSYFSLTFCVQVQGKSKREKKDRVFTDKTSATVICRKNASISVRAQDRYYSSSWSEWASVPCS
Procedure: (§1) Binding of anti-IL-23p19-specific antibodies to IL-23 proteins was analyzed by Surface plasmon resonance (SPR) determined by BIAcore. Briefly, serial dilutions of the anti-IL-23p19 antibodies or the control antibodies were captured on an anti-mouse or human Fc chip (s) that were immobilized on the CM5 chip using amine coupling kit (GE Healthcare, Catalog NO: BR-1000-50, LOT NO: 2087295).
(§2) Next, serial dilutions of IL-23 recombinant protein, human p19/mouse p40 heterodimer protein, human IL-12 protein and human p40 subunit protein in the running buffer containing 10 mM HEPES, 150 mM NaCl, 3 mM EDTA, 0.005% Tween 20, pH 7.4, were injected at 50 μl/minute over immobilized antibody for 1 minute followed by 2 minutes dissociation. Each injection was followed by a regeneration step with a 60-second pulse of 10 mM Glycine-HCl, pH 1.7 buffer. Fitting of experimental data was done with BIAevaluation software (GE Healthcare), fit with a Langmuir 1:1 model to determine apparent binding.

| Binder | binding result |
| --- | --- |
| B1 | no binding |
| B2 | no binding |
| B3 | no binding |
| B4 | no binding |
| B5 | no binding |

Each binder was assayed against T2, human p40 subunit protein (human, UniProt P29460 23-328) in the same assay as above.
T2 construct: p40 subunit alone; also called hp40
T2 sequence (looked up): T1 sequence (looked up) 2
Procedure: as §1, §2

| Binder | binding result |
| --- | --- |
| B1 | no binding |
| B2 | no binding |
| B3 | no binding |
| B4 | no binding |
| B5 | no binding |

Each binder was assayed against T3, recombinant human IL-23 (p19/p40 heterodimer) (human, UniProt Q9NPF7 20-189; P29460 23-328) (assay: SPR (BIAcore 3000); antibody captured on anti-mouse IgG CM5 chip, hIL-23 0.156-40 nM, 1:1 global fit).
T3 construct: Recombinant protein; for the kinetics R&D Systems 1290-IL/CF; biotinylated for the ELISA; also called hIL23; hIL-23
T3 sequence (looked up) 1: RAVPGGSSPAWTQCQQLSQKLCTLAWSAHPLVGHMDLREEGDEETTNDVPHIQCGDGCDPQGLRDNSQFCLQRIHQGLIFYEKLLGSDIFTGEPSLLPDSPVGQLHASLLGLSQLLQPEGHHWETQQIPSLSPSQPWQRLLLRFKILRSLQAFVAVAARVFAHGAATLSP
T3 sequence (looked up) 2: T1 sequence (looked up) 2
Procedure: To ensure accurate measurements of the KD and IC50 endpoints in binding and functional assays, the antibodies were purified from the hybridoma culture supernatants prior to testing. The binding kinetics of the disclosed anti-IL-23p19-specific antibodies to recombinant human IL-23 was determined by Surface plasmon resonance (SPR) using BIAcore 3000 system docked with a CM5 chip previously immobilized via amine coupling chemistry with anti-mouse IgG antibody (GE Cat No. BR-1008-38). Flow cell 1 remained unmodified to serve as a reference cell for subtraction of systematic instrument noise and drift. Fc2-1 detection was run with double blanking (Fc1 and blank analyte buffer). Antibody samples were diluted to 50 μg/mL in HBS-EP (GE, catalog no: BR1001-88) and injected at a flow rate of 10 uL/minute for 1 minute. Next, hIL-23 (R&D systems, catalog no: 1290-IL/CF) diluted to 0.156-40 nM was injected at 50 μL/minute for 2 minutes, followed by 10 minutes dissociation. Data were analyzed in BIAEvalution software (GE Healthcare) by 1:1 binding model with global fit to determine apparent binding kinetics.

| Binder | Kd [nM] | koff [s⁻¹] | kon [M⁻¹ s⁻¹] |
| --- | --- | --- | --- |
| B1 | 0.0416 | 6.54e-05 | 1.57e+06 |
| B2 | 0.0384 | 0.000171 | 4.44e+06 |
| B5 | 0.0662 | 9.89e-05 | 1.49e+06 |

What follows are binders tested against T3, recombinant human IL-23 (p19/p40 …) (assay: cell-based or functional assay).

| Binder | IC50 pM, STAT3 activation in DB reporter cells [pM] | Top % of inhibition, STAT3 activation in DB reporter cells [%] |
| --- | --- | --- |
| B1 | 158 | 97 |
| B6 | 60.5 | 99 |
| B2 | 35.2 | 99 |
| B7 | 168 | 99 |
| B3 | 157 | 100 |
| B4 | 265 | 100 |
| B5 | 226 | 99 |

The binders below were run against T1, human IL-12 protein (assay: ELISA; antigen coated directly on plate).
Procedure: (§3) The binding specificity of the disclosed anti-IL-23p19 antibodies were also assessed by ELISA. Briefly, biotinylated IL-23 were captured via streptavidin coated ELISA plates. Human p19/mouse p40, human IL-12 and human p40 subunit were directly coated to ELISA plates. Purified antibodies were then added to the plates followed by detection by goat-anti-mouse IgG-HRP (Jackson ImmunoResearch, catalog no: 115-036-071, LOT NO: 147271). After addition of ABTS substrate (Moss Inc., catalog no: ABTS-1000, LOT NO: 03086202), ELISA plates were read using an ELISA plate reader (Biotek). The controls depicted in FIG. 3: PC1 refers to a reference antibody (known to be a p19 specific antibody, Biointron, LOT NO:20180926A04); PC2 refers to a reference antibody (known to be a p40 specific antibody, Biointron, LOT NO: 20180925A07); PC3 refers to a reference antibody (MT155, known as a p19 specific antibody from Mabtech, catalog no: 3457-6-100, code: 3457-6-1000), the negative controls are human IgG4 (Dendritics, catalog no: DDXCHO4P-100, LOT NO: DDXCH04-028) and the mouse IgG2a (generated by Novarock Biotherapeutics).

| Binder | binding result |
| --- | --- |
| B7 | no binding |

These binders were tested against T2, human p40 subunit protein (assay: ELISA; antigen coated directly on plate).
Procedure: as §3

| Binder | binding result |
| --- | --- |
| B7 | no binding |

These binders were tested against T3, recombinant human IL-23 (p19/p40 …) (assay: SPR (BIAcore 3000); captured antibody, hIL-23 0.156-40 nM, 1:1 global fit).

| Binder | Kd [nM] | koff [s⁻¹] | kon [M⁻¹ s⁻¹] |
| --- | --- | --- | --- |
| B3 | 0.0572 | 0.000143 | 2.5e+06 |
